The target in one test is MLLT3 (Homo sapiens) (UniProt P42568). Particulars: cited from earlier work.
A further test concerns the target T1, MBP-AF9 (WT) (UniProt P42568 1-568).
T1 sequence (looked up): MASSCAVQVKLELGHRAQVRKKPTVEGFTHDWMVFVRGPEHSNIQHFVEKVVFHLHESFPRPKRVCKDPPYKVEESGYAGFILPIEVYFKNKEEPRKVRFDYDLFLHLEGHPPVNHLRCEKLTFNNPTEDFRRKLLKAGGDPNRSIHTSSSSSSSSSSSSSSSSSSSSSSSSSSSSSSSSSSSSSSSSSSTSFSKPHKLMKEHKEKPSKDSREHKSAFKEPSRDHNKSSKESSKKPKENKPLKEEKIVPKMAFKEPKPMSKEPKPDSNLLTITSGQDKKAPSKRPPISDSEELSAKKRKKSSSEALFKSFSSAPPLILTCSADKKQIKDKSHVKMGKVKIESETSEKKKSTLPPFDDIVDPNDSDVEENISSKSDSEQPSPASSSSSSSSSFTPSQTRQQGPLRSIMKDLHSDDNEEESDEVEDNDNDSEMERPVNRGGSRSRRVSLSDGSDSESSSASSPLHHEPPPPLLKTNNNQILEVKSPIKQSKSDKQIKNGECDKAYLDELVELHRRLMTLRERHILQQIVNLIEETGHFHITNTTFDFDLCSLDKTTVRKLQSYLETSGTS
The experiment in a line: other fluorescence titration.

For the next test, the target named is T2, MBP-AF9 (D544R) (UniProt P42568 1-568, D544R).
T2 sequence (looked up): T1 sequence (looked up) with D544R
The experiment in a line: other fluorescence titration.

Numbering of substitutions follows the chain as printed. Names and notes keep the numbering of the source. Where no end group is shown, it is not given here.

For 3 molecules, Kd results are on record in publication PMC4253547 (Leukemia research, 2014).

Chain of AFF1 (P51825 whole entry): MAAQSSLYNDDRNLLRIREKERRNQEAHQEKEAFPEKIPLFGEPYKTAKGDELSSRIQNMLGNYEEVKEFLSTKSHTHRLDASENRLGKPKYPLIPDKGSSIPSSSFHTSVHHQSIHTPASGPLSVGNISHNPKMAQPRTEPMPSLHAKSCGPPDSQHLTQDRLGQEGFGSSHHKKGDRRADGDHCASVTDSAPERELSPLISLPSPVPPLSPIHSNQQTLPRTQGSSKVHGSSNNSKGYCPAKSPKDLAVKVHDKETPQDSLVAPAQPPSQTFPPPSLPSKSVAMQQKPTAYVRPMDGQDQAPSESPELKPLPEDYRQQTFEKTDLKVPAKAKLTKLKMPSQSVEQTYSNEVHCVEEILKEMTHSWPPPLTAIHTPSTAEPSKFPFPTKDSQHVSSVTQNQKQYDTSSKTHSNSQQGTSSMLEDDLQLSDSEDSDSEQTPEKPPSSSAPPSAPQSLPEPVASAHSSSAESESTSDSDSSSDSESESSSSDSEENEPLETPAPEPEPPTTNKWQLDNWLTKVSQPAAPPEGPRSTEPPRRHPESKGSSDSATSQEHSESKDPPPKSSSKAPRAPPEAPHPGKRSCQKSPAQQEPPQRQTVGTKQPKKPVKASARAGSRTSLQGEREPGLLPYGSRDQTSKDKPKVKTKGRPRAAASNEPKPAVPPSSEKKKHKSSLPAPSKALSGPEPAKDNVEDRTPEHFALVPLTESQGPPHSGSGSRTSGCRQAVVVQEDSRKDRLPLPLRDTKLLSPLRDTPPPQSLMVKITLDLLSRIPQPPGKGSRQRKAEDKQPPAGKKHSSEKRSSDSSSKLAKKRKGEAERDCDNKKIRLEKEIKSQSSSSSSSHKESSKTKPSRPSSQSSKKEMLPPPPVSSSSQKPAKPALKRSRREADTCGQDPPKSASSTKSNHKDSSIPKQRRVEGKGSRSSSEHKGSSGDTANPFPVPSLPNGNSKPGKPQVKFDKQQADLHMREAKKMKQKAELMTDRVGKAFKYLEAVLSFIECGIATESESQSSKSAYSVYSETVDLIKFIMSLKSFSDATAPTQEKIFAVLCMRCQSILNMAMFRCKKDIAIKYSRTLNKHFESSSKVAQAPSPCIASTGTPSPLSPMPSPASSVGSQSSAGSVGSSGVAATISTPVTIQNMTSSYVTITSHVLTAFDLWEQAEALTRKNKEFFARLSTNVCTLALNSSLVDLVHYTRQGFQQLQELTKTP

A word on the Kd: it is the free concentration of one partner at which half of the binding sites on the other are occupied at equilibrium, for simple one-to-one binding. For AFF1 (from UniProt P51825), the Kd with MLLT3 (Homo sapiens) is 0.17 nM.

For LIVKIDLNLLTRIP (also: fluorescein (position not given here)) [Fluorescein AFF4 (WT) peptide], binding with MBP-AF9 (WT) was characterised by a dissociation constant (Kd) of 0.2 nM.

Turning to LIVDIDLNLLTRIP (also: fluorescein (position not given here)) [Fluorescein AFF4 (K717D) peptide], the values for the Kd with MBP-AF9 (WT) and with MBP-AF9 (D544R) were 37.4 nM and 0.21 nM, respectively.
